According to publication PMC10269782:

Columns and labels:
Nem1-3×Flag = assay: co-IP (GFP IP, anti-Flag western blot, band intensity quantified); details: ΔSpo7::Nem1-Flag strain; parent: est. 100; read off a plot
[1] = molecular target: Spo7^3R (co-IP construct) (Botryosphaeria dothidea); assay: co-IP; GFP and Flag fusion constructs transformed in pairs into B. dothidea LW03 (Spo7-Pah1 also in the ΔNem1 mutant); total proteins incubated with anti-GFP agarose; eluates blotted with anti-Flag and anti-GFP antibodies
[2] = molecular target: Spo7^I52R (co-IP construct) (Botryosphaeria dothidea); assay: as above
[3] = molecular target: Spo7^L50R (co-IP construct) (Botryosphaeria dothidea); assay: as above
[4] = molecular target: Spo7^L51R (co-IP construct) (Botryosphaeria dothidea); assay: as above

Substance	percent of parent (Nem1-3×Flag)	also measured
GFP-Spo7 I52A	98%	–
GFP-Spo7 L50A	108%	–
GFP-Spo7 L50A; L51A; I52A	97%	–
GFP-Spo7 L51A	100%	–
Nem1-3×Flag (enzyme)	–	percent reduction of the interaction level against wild-type Spo7 (Nem1-Flag band in GFP IP) [1]: 93%; percent reduction of the interaction level against wild-type Spo7 (Nem1-Flag band in GFP IP) [2]: 55%; percent reduction of the interaction level against wild-type Spo7 (Nem1-Flag band in GFP IP) [3]: 72%; percent reduction of the interaction level against wild-type Spo7 (Nem1-Flag band in GFP IP) [4]: 68%
